Results published in patent publication US20230087785A1, “Leucine-Rich Repeat Kinase 2 Allosteric Modulators” (VIB VZW, priority 2020, published 2023).

Assays:
[1] = target: T1, endogenous mouse LRRK2 (RAW264.7 cells) (mouse, UniProt Q5S006 1-2527); test: immunofluorescence colocalisation of GFP-Nb and LRRK2 in RAW264.7 cells
T1 construct: also called endogenous LRRK2
From the text: (§1) To test whether Nbs can trace and visualize endogenous LRRK2 in fixed cells, we generated green fluorescent protein (GFP)-Nb fusions (fluobodies) as described before. Recently, it was shown that LRRK2 is recruited to phagosomes upon induction of phagocytosis in immune cells. Therefore, RAW264.7 cells were transfected with these fluobodies and treated with killed yeast bioparticles “zymosan” to induce phagocytosis.
RAW264.7 cells (ATCC® SC-6003™) were transfected with peGFP-Nb constructs using JetOPTIMUS (Polyplus transfection) for 24 hrs and then stimulated with Zymosan particles (Sigma Aldrich) for 30 mins ([…]). Immunostaining for LRRK2 was performed as reported before. Briefly, cells fixed with 4% (w/v) paraformaldehyde for 30 min, followed by treatment with 100% EtOH at −20° C. Sampled were permeabilized with PBS/0.5% Triton X-100 and blocked with 3% BSA. Primary antibodies (rabbit anti-LRRK2, c41-2, Abcam and mouse anti-GFP, G6539, Sigma Aldrich) were diluted in PBS containing 3% BSA and 0.5% Triton X-100 and incubated overnight at 4° C. […] Cells were washed twice with 1×PBS and mounted with Fluroshield antifade reagent with DAPI (SigmaAldrich). Images were acquired on Zeiss LSM800 confocal laser scanning microscope. Image analysis of z-scan was done using the Zeiss microscope software ZEN.

[2] = target: T2, mScarlet-LRRK2 (Homo sapiens, UniProt Q5S007, M2397T/R50H); test: Confocal microscopy of LRRK2 microtubule localization in HEK293 cells; type: cell-based; details: HEK293 cells co-transfected with mScarlet-LRRK2 and GFP-Nb, treated with 1 μM MLi-2
T2 construct: expressed in transfected cells; host or cells: HEK293
From the text: HEK 293 cells were co-transfected with the indicated GFP-Nbs and mScarlet-LRRK2. […] Scale bar 5 μm.
FIG. 6. […] Scale bar 5 μm.
The binding of LRRK2 to microtubules subsequently reduces the kinesin—and dynein-mediated transport along microtubules.
Recent structural information has linked LRRK2 microtubule relocalization to the conformation of the kinase domain, with a closed conformation favoring LRRK2 binding to microtubules. As a consequence, the commonly used ATP-competitive type I LRRK2 inhibitors trigger this effect. In addition, it was shown before that the WD40 domain is indispensable for LRRK2-microtubule association.
A HEK293 cell line was cultured in complete media (high-glucose Dulbecco's modified Eagle's medium, 10% fetal bovine serum and Penicillin-Streptomycin-Glutamine (Gibco)). Cells were seeded on 8-well p-Slide(Ibidi) and transfected at a confluency of 50-70% with GFP-Nb and mScarlet-LRRK2 constructs, using JetPEI reagent (Polyplus transfection). […] Data acquisition was done with a ×100 oil-immersion objective with a Zeiss LSM800 confocal laser scanning microscope. Image analysis of z-scan was done using the Zeiss microscope software ZEN.

[3] = target: T3, endogenous LRRK2 (Mus musculus, UniProt Q5S006); test: Colocalization of GFP-Nbs with endogenous LRRK2 on zymosan-containing phagosomes in RAW264.7 cells; type: cell-based; details: RAW264.7 cells transfected with GFP-Nbs, zymosan 30 mins, fixed cells
T3 construct: endogenous in cells; host or cells: RAW264.7
Protocol: RAW264.7 cells were transfected with GFP-fused Nbs and treated with Zymosan for 30 mins. Recruitment of LRRK2 and Nbs to the phagosomes was analyzed by immunofluorescence. FIG. 16A, images for Nb38, Nb22, Nb23, Nb40, No Nb, or Irrelevant (IRR) Nb treatments; FIG. 16B, images for Nb36, Nb42, Nb17, Nb39, Nb1, and Nb6 treatments. Scale bar=10 μm.
as §1
RAW264.7 cells (ATCC® SC-6003™) were transfected with peGFP-Nb constructs using JetOPTIMUS (Polyplus transfection) for 24 hrs and then stimulated with Zymosan particles (Sigma Aldrich) for 30 mins ([…]). Immunostaining for LRRK2 was performed as reported before. Briefly, cells fixed with 4% (w/v) paraformaldehyde for 30 min, followed by treatment with 100% EtOH at −20° C. Sampled were permeabilized with PBS/0.5% Triton X-100 and blocked with 3% BSA. Primary antibodies (rabbit anti-LRRK2, c41-2, Abcam and mouse anti-GFP, G6539, Sigma Aldrich) were diluted in PBS containing 3% BSA and 0.5% Triton X-100 and incubated overnight at 4° C. After three 5-min washes with PBS, secondary fluorescently labeled antibodies (anti-rabbit-Alexa fluor 568 and anti-mouse-Alexa fluor 488, Invitrogen) were added in a similar manner to primary antibodies and incubated for 1 hour at room temperature. Cells were washed twice with 1×PBS and mounted with Fluroshield antifade reagent with DAPI (SigmaAldrich). Images were acquired on Zeiss LSM800 confocal laser scanning microscope. Image analysis of z-scan was done using the Zeiss microscope software ZEN.

[4] = target: T4, LRRK2(G2019S) (Homo sapiens, UniProt Q5S007, G2019S/M2397T/R50H); test: In cellulo phospho-Rab / LRRK2 autophosphorylation assay in HEK293T cells; type: cell-based; design: key to Functional Group (see FIG. 2d): Group 1: group 1: Nbs that inhibit both LRRK2 autophosphorylation and Rab10 phosphorylation in cells; Group 2: group 2: Nbs that inhibit only Rab10 phosphorylation; Group 3: group 3: Nbs that activate LRRK2 kinase activity; Group 4: group 4: Nbs that have no consistent/clear effect on LRRK2 kinase activity; details: for LRRK2 autophosphorylation at position S1292 / influence on LRRK2 kinase activity compared to the controls / Rab10 phosphorylation at position T72: HEK 293T cells co-expressing LRRK2(G2019S), Rab29 and Nb-GFP; for influence on LRRK2 kinase activity compared to the controls: Western blot; for Functional Group (see FIG. 2d): classification by effect on in cellulo LRRK2(G2019S) kinase activity; for Rab10 phosphorylation at position T72: endogenous Rab10
T4 construct: SF tag (FLAG + Twin-Strep); expressed in transfected cells; host or cells: HEK 293T
Procedure, shortened: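 Cells co-transfected (PEI) with SF-tagged LRRK2(G2019S), FLAG-HA Rab29 and Nb-GFP fusions, lysed after 48 hrs. Western blot read LRRK2 pS1292 and endogenous Rab10 pT72 with site-specific antibodies, referenced to total LRRK2 and Rab10; ECL chemiluminescence on film.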

T4 sequence (Q5S007 whole entry R50H/G2019S/M2397T): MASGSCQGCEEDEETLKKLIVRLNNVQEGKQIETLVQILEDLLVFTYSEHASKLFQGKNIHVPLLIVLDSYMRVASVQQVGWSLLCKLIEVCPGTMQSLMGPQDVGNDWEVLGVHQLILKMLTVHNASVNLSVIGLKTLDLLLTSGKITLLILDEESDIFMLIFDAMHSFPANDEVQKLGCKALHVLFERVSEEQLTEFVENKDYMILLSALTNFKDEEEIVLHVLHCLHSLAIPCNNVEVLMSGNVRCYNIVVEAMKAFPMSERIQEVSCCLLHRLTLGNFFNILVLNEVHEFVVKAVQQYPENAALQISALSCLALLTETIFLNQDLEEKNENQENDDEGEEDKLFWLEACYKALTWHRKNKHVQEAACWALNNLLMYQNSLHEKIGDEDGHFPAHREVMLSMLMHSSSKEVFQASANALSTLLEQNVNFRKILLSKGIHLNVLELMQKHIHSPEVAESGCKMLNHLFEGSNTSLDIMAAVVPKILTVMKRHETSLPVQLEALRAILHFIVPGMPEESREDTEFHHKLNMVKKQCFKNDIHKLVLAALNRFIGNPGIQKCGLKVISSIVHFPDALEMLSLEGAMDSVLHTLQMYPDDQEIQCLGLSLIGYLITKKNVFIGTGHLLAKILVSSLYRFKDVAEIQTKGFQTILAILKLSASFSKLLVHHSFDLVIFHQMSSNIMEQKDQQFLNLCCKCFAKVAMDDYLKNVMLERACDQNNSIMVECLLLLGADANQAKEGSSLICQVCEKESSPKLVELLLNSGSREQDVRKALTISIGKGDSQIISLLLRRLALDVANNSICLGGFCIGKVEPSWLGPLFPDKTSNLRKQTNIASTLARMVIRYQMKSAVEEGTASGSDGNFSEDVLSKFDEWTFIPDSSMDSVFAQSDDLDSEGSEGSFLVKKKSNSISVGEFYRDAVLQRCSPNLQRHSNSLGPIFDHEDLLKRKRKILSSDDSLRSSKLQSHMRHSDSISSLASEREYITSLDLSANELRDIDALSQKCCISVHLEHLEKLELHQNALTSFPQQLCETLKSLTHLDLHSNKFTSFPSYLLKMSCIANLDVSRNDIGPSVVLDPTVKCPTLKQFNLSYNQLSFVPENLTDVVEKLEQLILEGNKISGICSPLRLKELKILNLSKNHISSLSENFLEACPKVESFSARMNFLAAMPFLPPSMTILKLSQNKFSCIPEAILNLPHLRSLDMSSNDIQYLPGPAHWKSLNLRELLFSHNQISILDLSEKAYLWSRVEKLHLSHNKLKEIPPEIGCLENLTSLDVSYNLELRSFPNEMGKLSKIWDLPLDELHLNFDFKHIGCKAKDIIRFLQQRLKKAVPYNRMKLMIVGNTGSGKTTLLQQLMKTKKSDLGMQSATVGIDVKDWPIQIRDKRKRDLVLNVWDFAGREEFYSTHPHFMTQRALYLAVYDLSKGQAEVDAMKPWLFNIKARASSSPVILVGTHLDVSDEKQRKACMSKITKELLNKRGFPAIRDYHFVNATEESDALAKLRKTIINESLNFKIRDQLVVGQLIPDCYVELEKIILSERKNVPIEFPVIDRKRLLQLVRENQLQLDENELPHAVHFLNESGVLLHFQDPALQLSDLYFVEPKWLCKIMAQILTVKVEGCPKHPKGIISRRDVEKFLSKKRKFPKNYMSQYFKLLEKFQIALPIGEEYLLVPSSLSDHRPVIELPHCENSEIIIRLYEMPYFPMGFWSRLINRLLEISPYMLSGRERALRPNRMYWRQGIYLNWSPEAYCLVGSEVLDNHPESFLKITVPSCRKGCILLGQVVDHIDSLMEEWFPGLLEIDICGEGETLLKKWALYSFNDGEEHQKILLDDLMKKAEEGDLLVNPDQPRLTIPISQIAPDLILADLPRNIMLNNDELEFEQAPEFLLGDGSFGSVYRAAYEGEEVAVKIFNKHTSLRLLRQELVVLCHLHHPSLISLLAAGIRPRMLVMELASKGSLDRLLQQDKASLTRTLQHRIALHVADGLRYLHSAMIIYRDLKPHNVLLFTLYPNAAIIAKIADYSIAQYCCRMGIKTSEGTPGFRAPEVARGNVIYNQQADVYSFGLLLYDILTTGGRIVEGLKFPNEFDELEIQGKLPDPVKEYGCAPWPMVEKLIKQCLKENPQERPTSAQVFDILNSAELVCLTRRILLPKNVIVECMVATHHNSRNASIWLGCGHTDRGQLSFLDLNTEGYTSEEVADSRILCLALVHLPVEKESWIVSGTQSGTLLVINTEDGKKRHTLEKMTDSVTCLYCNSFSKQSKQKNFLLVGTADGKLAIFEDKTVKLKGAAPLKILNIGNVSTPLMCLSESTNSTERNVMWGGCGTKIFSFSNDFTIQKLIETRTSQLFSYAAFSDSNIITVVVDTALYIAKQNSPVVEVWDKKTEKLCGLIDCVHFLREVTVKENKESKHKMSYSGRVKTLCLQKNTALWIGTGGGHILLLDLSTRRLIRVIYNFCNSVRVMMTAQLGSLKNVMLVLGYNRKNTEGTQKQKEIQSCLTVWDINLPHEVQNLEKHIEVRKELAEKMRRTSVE
T1 sequence (Q5S006 whole entry): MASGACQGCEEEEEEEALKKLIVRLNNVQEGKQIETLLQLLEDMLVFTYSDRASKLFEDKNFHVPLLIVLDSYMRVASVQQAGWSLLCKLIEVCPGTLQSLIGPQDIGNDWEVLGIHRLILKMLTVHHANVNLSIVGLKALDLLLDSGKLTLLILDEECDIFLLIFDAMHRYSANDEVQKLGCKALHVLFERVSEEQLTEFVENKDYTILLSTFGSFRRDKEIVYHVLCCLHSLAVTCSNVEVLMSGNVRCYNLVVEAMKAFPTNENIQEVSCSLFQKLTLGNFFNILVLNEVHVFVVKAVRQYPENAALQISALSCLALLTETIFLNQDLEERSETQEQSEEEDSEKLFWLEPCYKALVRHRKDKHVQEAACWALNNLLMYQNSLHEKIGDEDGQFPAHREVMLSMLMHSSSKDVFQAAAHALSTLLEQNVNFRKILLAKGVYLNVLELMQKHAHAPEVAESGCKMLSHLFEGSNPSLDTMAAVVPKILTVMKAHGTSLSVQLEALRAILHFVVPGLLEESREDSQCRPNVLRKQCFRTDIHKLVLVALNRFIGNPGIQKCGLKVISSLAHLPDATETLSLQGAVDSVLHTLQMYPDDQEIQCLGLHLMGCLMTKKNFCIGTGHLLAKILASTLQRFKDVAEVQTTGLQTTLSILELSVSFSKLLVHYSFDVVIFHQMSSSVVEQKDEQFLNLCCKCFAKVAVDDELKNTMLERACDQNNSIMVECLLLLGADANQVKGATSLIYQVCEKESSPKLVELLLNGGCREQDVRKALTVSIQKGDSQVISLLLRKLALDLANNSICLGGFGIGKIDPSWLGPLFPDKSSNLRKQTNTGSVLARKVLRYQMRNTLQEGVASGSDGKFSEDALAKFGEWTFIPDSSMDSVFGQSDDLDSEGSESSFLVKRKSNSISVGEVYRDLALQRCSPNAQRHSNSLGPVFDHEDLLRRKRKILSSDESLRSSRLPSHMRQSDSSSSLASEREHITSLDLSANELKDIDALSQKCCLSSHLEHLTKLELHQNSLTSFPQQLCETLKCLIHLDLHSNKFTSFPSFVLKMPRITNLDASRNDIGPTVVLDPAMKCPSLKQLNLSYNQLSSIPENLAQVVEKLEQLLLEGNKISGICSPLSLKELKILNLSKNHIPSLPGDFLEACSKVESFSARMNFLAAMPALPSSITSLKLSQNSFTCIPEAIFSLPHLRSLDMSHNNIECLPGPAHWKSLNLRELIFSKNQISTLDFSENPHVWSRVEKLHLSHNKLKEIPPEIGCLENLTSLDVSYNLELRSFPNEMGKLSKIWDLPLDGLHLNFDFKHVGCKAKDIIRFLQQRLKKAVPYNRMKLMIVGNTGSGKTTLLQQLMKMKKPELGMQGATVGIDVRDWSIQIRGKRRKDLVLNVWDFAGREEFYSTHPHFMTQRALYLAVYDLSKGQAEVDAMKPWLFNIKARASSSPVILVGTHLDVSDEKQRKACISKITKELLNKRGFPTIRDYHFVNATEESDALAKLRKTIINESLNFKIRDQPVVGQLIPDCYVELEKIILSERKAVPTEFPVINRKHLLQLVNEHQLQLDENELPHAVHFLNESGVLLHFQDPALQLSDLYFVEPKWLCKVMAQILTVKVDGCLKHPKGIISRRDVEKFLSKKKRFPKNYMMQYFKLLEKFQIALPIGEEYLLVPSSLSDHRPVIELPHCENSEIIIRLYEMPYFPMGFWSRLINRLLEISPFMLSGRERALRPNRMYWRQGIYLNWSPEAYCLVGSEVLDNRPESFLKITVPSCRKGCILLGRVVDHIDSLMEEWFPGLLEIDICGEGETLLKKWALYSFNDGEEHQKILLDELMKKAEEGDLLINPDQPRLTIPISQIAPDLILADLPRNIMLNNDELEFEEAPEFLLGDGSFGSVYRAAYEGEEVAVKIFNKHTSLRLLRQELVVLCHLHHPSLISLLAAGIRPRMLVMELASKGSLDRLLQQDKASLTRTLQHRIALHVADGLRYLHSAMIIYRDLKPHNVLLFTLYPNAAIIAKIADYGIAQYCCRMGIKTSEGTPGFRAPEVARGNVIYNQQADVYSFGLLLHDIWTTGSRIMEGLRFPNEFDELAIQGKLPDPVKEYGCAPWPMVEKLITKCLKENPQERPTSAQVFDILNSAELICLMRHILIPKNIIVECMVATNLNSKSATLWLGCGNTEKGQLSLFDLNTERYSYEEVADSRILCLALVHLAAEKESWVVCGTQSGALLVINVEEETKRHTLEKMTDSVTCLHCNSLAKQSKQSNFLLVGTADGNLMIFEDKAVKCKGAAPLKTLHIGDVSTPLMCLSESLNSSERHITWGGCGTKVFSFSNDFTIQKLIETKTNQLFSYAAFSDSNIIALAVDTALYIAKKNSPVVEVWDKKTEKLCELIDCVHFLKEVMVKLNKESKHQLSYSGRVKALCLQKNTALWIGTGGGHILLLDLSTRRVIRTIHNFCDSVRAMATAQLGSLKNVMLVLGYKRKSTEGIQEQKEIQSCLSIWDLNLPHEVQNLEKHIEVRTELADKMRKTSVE
T3 sequence (Q5S006 whole entry): as above
T2 sequence (Q5S007 whole entry R50H/M2397T): as the sequence (Q5S007 whole entry R50H/G2019S/M2397T) above, with S2019G counted along it

Molecule | binding result [1] | effect on MLi-2-induced recruitment of LRRK2 to microtubules [2] | colocalization with endogenous LRRK2 on phagosomes [3] | LRRK2 autophosphorylation at position S1292 [4] | influence on LRRK2 kinase activity compared to the controls [4] | Functional Group (see FIG. 2d) [4] | Rab10 phosphorylation at position T72 [4]
Nb38 (CA14133)-GFP fusion (VHH, expressed in cells as intrabody; also called GFP-Nb38; fluobody Nb38; not shown: enhanced GFP fused to the C-terminus of the Nb (pEGFP-N1)) VHH: QVQLVESGGGLVQPGGSLRLSCAASGSIRSIATSAWYRQPPGKQRELVAGISSGTTTNYADSVKGRFTISRDNAKNTVYLQMNSLKPEDTAVYYCHAWISGTWISGQGTQVTVSS | binds |  |  |  |  |  | 
Nb40: LRRK2-specific Nanobody, SEQ ID NO: 4 (protein, Nanobody CA14135) VHH: MAQVQLVESGGGLVQPGGSLRLSCVASGTIYAINRMGWYRQAPGKQRELVALITLGGGTNYGDSVKGRFTISRDNAKNTGYLQMNSLKPEDTAVYYCKVESSGYTDVFWGQGTQVTVSS |  | rescuing effect is most prominent | clearly colocalized with LRRK2 on zymosan-containing phagosomes | inhibiting S1292 phosphorylation at a lesser extent | strongly decreased LRRK2 autophosphorylation and/or Rab10 phosphorylation | Group 2 | inhibit Rab10 phosphorylation
Nb40 (CA14135)-GFP fusion (VHH, expressed in cells as intrabody; also called GFP-Nb40; fluobody Nb40; not shown: enhanced GFP fused to the C-terminus of the Nb (pEGFP-N1)) VHH: QVQLVESGGGLVQPGGSLRLSCVASGTIYAINRMGWYRQAPGKQRELVALITLGGGTNYGDSVKGRFTISRDNAKNTGYLQMNSLKPEDTAVYYCKVESSGYTDVFWGQGTQVTVSS | binds |  |  |  |  |  | 
Nb17: LRRK2-specific Nanobody, SEQ ID NO: 5 (protein, Nanobody CA13606) VHH: MAQVQLVESGGGLVQPGGSLRLSCAASGSNIGYMAWYRQAPGSQRELVARIASGGSANYADSVKGRFTISRDNVKNTVYLHMNSLKPVDTAVYYCHADAWYNSRWSDYWGQGTQVTVSS |  | rescuing effect is most prominent | LRRK2 recruitment to phagosomes was slightly detectable | inhibiting S1292 phosphorylation at a lesser extent | strongly decreased LRRK2 autophosphorylation and/or Rab10 phosphorylation | Group 2 | inhibit Rab10 phosphorylation
